Reference: patent US20190077863A1 (AERPIO PHARMACEUTICALS, published 2019)

Assays:
[1] = target: T1, Cynomolgus VE-PTP (Cyno PTP-β) containing first eight FN3 repeats with C-terminal His10 tag (Cyno Beta ½ … (cynomolgus, UniProt P23467 25-817 (human entry))); assay: ELISA, coated antigen
T1 construct: Produced in HEK293 cells; it was not cut off; also called Cyno VE-PTP
T1 chain: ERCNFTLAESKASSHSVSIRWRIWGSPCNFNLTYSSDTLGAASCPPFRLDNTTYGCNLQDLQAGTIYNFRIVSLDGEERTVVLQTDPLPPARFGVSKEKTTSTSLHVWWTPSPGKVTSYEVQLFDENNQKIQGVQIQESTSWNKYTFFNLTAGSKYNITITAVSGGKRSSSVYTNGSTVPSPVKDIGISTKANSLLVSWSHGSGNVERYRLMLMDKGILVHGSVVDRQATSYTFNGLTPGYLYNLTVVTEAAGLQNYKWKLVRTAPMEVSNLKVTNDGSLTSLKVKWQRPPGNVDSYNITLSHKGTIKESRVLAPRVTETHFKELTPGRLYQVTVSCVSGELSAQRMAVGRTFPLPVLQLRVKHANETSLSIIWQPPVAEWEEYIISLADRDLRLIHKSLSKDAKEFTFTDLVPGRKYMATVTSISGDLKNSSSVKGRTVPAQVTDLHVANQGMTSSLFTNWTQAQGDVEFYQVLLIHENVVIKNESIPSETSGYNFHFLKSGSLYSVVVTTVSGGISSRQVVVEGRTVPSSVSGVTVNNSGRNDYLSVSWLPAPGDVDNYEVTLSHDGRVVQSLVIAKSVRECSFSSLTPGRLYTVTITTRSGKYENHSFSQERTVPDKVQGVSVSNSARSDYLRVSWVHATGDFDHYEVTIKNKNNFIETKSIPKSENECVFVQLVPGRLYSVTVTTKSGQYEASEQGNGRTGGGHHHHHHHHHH
Procedure: (§1) HPTP-β, cyno PTP-β, and HPTP-η proteins were coated onto ELISA plates in coating buffer (pH 9.4). Each protein was prepared as a 1 μg/mL protein stock in 50 mM carbonate-bicarbonate. The coated proteins were aliquoted at a volume of 100 μL/well into sterile, clear, polystyrene, flat bottom 96-well plates. The plates were incubated overnight at 4° C. After overnight incubation, the plates were washed 3× with 200 μL/well of 1×PBS-T (PBS with 0.05% Tween 20). The immunizing protein was human VE-PTP (HPTP-β). The plates were then blocked with 200 μL/well of 5% blotting grade blocker non-fat dry milk in PBS-T and incubated for 1 hr at room temperature.
(§2) Primary antibody samples were prepared for the humanized variants and the negative control, anti-hCD20-hIgG4S228P, using 1 μg/well in 5% blotting grade blocker non-fat dry milk in PBS. Samples were tested in triplicates. The Fab antibody fragments were treated as the IgG antibodies. The plates were then washed 3× with PBS-T and 100 μL of primary antibody preparation was added in each well. The plates were then incubated for 1 hr at room temperature.
(§3) Then, […] Ultra TMB-ELISA was added in each well, and the plate was allowed to develop for 5 min at room temperature. After 5 min, 50 μL of 2 M sulfuric acid was added to each well to stop the reaction. The plates were then analyzed on a plate reader at an absorbance wavelength of 450 nm.

[2] = target: T2, Human HPTP-η with C-terminal His10 tag (Human HPTP-η ECD) (human, UniProt Q12913 36-975); assay: ELISA, coated antigen
T2 construct: Produced in HEK293 cells; it was not cut off; also called Human PTPη; human PTP-η
T2 sequence: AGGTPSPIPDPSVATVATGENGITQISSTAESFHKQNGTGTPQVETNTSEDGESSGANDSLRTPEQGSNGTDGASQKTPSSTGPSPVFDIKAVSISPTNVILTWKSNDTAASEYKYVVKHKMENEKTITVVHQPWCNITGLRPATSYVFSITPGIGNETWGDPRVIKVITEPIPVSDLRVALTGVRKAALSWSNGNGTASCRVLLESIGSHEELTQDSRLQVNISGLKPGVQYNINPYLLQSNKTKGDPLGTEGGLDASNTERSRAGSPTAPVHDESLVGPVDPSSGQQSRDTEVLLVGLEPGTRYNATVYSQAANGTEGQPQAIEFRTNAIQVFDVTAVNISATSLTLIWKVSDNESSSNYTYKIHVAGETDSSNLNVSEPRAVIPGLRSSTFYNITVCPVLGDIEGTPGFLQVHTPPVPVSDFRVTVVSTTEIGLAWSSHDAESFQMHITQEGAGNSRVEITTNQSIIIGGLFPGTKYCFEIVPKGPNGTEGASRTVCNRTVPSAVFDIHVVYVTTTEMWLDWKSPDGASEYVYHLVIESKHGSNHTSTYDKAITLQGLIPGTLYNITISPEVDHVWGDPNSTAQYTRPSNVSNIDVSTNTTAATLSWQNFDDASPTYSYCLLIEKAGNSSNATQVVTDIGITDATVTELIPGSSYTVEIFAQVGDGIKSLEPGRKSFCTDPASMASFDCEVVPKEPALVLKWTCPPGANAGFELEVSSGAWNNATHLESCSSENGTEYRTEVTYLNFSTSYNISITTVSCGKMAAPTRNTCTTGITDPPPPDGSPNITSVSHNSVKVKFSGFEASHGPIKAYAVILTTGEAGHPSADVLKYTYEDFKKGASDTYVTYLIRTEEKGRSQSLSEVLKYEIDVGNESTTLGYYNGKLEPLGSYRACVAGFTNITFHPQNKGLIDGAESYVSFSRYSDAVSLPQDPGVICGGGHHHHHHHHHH
Procedure: as §1, §2, §3

VEGFR2 = target: T3, VEGFR2 (human, UniProt P35968 20-1356); assay: immunoprecipitation western blot, HUVECs
T3 construct: Named only as 'VEGFR2; (R2/T2)' in the immunoprecipitation experiment with HUVECs
T3 sequence (P35968 20-1356 limits assumed): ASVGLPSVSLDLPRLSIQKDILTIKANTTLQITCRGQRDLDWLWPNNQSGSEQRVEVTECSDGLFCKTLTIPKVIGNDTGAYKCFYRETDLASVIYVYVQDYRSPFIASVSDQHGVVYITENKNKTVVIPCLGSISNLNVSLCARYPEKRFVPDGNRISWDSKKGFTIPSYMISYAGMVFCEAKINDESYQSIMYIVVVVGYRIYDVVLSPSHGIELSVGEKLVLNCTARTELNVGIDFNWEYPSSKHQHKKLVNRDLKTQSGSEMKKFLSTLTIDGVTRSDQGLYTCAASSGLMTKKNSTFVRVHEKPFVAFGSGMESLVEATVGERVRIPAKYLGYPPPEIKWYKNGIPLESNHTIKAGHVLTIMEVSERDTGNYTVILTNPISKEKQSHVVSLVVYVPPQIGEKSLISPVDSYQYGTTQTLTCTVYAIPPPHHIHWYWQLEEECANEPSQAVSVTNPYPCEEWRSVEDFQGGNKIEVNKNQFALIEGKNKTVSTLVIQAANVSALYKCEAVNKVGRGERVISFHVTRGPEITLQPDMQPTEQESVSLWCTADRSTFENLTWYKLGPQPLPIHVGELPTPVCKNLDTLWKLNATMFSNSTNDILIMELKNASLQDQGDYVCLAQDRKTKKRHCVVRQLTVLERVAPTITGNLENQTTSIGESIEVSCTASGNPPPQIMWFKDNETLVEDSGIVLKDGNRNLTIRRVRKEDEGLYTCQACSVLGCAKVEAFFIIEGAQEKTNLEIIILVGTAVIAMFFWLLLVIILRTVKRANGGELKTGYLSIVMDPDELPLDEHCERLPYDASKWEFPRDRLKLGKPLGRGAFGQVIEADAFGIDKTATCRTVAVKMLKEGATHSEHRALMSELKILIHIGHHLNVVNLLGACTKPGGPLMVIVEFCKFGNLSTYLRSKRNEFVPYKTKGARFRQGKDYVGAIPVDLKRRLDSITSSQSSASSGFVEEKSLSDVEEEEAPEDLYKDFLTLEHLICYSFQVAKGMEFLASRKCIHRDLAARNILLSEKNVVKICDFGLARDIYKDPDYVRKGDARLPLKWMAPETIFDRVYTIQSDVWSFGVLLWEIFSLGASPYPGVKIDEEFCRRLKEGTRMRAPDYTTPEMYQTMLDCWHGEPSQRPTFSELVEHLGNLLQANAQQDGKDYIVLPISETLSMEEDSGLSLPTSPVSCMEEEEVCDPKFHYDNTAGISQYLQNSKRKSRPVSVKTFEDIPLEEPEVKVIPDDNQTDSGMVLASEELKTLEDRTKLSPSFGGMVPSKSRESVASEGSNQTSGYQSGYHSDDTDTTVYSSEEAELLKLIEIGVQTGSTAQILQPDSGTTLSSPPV

Tie2 = target: T4, Tie2 (human, UniProt Q02763 23-1124); assay: immunoprecipitation western blot, HUVECs
T4 construct: Named only as 'Tie2 (R2/T2)' in the immunoprecipitation experiment with HUVECs; also called T2
T4 sequence (Q02763 23-1124 limits assumed): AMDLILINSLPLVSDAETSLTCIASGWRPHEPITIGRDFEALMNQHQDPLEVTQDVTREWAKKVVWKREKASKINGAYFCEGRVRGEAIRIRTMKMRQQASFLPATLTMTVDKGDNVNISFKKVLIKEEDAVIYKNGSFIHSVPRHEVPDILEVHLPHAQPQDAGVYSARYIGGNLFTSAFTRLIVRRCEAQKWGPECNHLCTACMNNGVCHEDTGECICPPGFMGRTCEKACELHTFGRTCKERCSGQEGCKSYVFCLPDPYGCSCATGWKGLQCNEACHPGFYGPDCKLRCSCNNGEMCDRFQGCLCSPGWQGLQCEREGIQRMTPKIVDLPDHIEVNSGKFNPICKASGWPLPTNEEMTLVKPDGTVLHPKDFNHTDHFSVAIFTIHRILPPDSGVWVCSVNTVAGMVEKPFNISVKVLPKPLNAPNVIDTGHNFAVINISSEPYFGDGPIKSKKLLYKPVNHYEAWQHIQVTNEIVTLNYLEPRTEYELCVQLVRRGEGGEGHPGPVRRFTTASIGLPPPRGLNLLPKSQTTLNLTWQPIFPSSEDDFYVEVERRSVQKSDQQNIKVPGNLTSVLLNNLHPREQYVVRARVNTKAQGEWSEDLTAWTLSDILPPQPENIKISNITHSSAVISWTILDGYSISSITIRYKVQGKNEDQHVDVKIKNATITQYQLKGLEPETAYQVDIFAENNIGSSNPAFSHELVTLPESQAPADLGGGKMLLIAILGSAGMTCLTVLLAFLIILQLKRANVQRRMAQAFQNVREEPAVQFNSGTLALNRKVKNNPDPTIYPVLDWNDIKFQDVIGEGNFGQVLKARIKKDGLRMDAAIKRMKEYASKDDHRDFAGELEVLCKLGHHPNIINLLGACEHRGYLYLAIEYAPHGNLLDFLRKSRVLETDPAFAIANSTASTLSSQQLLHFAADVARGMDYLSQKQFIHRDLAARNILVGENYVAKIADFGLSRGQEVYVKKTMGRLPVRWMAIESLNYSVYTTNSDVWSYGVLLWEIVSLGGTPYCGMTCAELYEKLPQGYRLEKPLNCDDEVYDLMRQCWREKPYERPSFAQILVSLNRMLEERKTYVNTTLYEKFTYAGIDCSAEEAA

[3] = target: T5, Human VE-PTP (HPTP-β) containing first eight FN3 repeats with C-terminal His6 tag (Human ½ VE-PTP ECD) (human, UniProt P23467 23-820); assay: ELISA, antigen coated at 1 µg/mL, antibody 1 µg/well
T5 construct: Produced in HEK293 cells and purified by the His tag; it was not cut off; also called Human Beta ½ ECD
T5 sequence: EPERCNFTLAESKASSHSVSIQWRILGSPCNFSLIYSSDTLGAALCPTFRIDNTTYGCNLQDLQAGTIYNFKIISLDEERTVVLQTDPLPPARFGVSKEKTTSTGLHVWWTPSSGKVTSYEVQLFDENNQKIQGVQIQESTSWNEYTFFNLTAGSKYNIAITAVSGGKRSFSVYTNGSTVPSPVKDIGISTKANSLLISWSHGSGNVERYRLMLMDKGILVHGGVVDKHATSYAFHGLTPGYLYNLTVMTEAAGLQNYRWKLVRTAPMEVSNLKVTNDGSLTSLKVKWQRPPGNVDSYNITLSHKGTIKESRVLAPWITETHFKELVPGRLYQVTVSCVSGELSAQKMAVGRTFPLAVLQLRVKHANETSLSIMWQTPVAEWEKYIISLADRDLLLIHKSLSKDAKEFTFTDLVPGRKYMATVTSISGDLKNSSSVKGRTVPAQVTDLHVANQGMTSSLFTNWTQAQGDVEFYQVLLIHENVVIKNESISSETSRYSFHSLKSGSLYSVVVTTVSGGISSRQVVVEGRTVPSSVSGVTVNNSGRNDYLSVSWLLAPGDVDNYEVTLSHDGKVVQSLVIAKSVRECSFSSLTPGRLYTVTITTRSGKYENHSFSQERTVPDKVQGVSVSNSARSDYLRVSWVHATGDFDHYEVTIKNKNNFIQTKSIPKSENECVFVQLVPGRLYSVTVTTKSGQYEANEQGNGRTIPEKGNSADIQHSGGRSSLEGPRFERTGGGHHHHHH
Procedure: as §1, §2, §3

B1: murine monoclonal antibody R15E6 (antibody, V domains shown)
VH: EVQLVETGGGLVQPKGSMKLSCAASGFTFNANAMNWIRQAPGKGLEWVARIRTKSNNYATYYAGSVKDRFTISRDDAQNMLYLQMNDLKTEDTAMYYCVRDYYGSSAWITYWGQGTLVTVSA
VL: DIVMTQSHKFMSTSVGDRVSITCKASQHVGTAVAWYQQKPDQSPKQLIYWASTRHTGVPDRFTGSGSGTDFTLTISNVQSEDLADYFCQQYSSYPFTFGSGTKLEIK
notes: Murine monoclonal antibody of hybridoma ATCC PTA-7580, 150 kDa; also called Parental; parental antibody
[1]
  binding result: no binding (tested: <=0.2; 1 µg/well)
[2]
  binding result: no binding (tested: <=0.2; 1 µg/well)
VEGFR2
  binding result: no binding
Tie2
  binding result: no binding
[3]
  ELISA value (absorbance at 450 nm): 2.43
